The record followed here is the supplement of paper PMC11316812.

One data set relates to hTERT-HMEC. The experiment in a line: percentage of EdU-negative (G0-arrested) nuclei per well, 72 h; higher = more G0 arrest. As to conditions: reference: sequence is the full UniProt precursor, the tested protein was the secreted form or ectodomain.
For the next data set, the system named is MCF7. The data set is described as above. As to conditions: reference: sequence is the full UniProt precursor, the tested protein was the secreted form or ectodomain.
The mark [1] stands for this setting: protein concentration 0.0215 µM.
Where [2] appears, read: protein concentration 0.0225 µM.
Setting [3] is: protein concentration 0.03034 µM.
Where [4] appears, read: protein concentration 0.3034 µM.

± gives the standard deviation of the averaged measurements.
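Further: secreted proteins added to cultured cells, EdU pulse at the end, nuclei found by Hoechst imaging, EdU status from nuclear versus surrounding ring intensity ratio, PBS as neutral control.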

“MQCLLLLPFLLLGTVSALHLENDAPHLESLETQADLGQDLDSSKEQERDLALTEEVIQAEGEEVKASACQDNFEDEEAMESDPAALDKDFQCPREEDIVEVQGSPRCKICRYLLVRTPKTFAEAQNVCSRCYGGNLVSIHDFNFNYRIQCCTSTVNQAQVWIGGNLRGWFLWKRFCWTDGSHWNFAYWSPGQPGNGQGSCVALCTKGGYWRRAQCDKQLPFVCSF [Q9Y2Y8]”: the “percentage of EdU-negative” value turned out to be 5.28 ± 1.6% in the data set with hTERT-HMEC (setting [1]), 8.49 ± 1.7% in the data set with hTERT-HMEC (protein concentration 0.215 µM), 28.7 ± 1.2% in the data set on MCF7 (setting [1]) and 32.1 ± 2.4% in the data set on MCF7 (protein concentration 0.215 µM).
With “MQCRLPRGLAGALLTLLCMGLLCLRYHLNLSPQRVQGTPELSQPNPGPPKLQLHDVFIAVKTTRAFHRLRLELLLDTWVSRTREQTFVFTDSPDKGLQERLGSHLVVTNCSAEHSHPALSCKMAAEFDTFLASGLRWFCHVDDDNYVNPRALLQLLRAFPLARDVYVGRPSLNRPIHASEPQPHNRTRLVQFWFATGGAGFCINRKLALKMAPWASGSRFMDTSALIRLPDDCTMGYIIECKLGGRLQPSPLFHSHLETLQLLRTAQLPEQVTLSYGVFEGKLNVIKLQGPFSPEEDPSRFRSLHCLLYPDTPWCPQLGAR”, the “percentage of EdU-negative” value was found to be 5.18 ± 0.59% with hTERT-HMEC (setting [2]), 11.6 ± 0.88% with hTERT-HMEC (protein concentration 0.225 µM), 25.3 ± 2.3% in the data set on MCF7 (setting [2]) and 29.9 ± 2.4% with MCF7 (protein concentration 0.225 µM).
The matching figures for “MQCWQQPFLRFLQQPFFLATASLAGSSSSFNVLIPKRDEDGDGEGPGDVTAGVSRAAGSPSGWEAPWVQQPRCCRRATPVCCAGQGPPRSLQQGGSEVLLGQLCSPEPDWLPSSGPKVAKQVFQVAAELLQHPEHFVPSSVPEGCVHKPGSTCDGSLKGRAYPSCVPKRDPEHSREESHPLSG [Q6UXR6]”: 4.87 ± 0.51%, 4.95 ± 1%, 26.15 ± 0.12% and 26.1 ± 0.63%.
For “MQGAQEASASEMLPLLLPLLWAGALAQERRFQLEGPESLTVQEGLCVLVPCRLPTTLPASYYGYGYWFLEGADVPVATNDPDEEVQEETRGRFHLLWDPRRKNCSLSIRDARRRDNAAYFFRLKSKWMKYGYTSSKLSVRVMALTHRPNISIPGTLESGHPSNLTCSVPWVCEQGTPPIFSWMSAAPTSLGPRTTQSSVLTITPRPQDHSTNLTCQVTFPGAGVTMERTIQLNVSYAPQKVAISIFQGNSAAFKILQNTSSLPVLEGQALRLLCDADGNPPAHLSWFQGFPALNATPISNTGVLELPQVGSAEEGDFTCRAQHPLGSLQISLSLFVHWKPEGRAGGVLGAVWGASITTLVFLCVCFIFRVKTRRKKAAQPVQNTDDVNPVMVSGSRGHQHQFQTGIVSDHPAEAGPISEDEQELHYAVLHFHKVQPQEPKVTDTEYSEIKIHK”, the “percentage of EdU-negative” value with hTERT-HMEC (setting [3]) stood at 5.1074 ± 0.0018%; in the data set on hTERT-HMEC (setting [4]), 5.306 ± 0.046%; in the data set on MCF7 (setting [3]), 22.4 ± 2.3%; with MCF7 (setting [4]) it was 27.1 ± 0.29%.
For “MQGPWVLLLLGLRLQLSLGIIPVEEENPDFWNRQAAEALGAAKKLQPAQTAAKNLIIFLGDGMGVSTVTAARILKGQKKDKLGPETFLAMDRFPYVALSKTYSVDKHVPDSGATATAYLCGVKGNFQTIGLSAAARFNQCNTTRGNEVISVMNRAKKAGKSVGVVTTTRVQHASPAGAYAHTVNRNWYSDADVPASARQEGCQDIATQLISNMDIDVILGGGRKYMFPMGTPDPEYPDDYSQGGTRLDGKNLVQEWLAKHQGARYVWNRTELLQASLDPSVTHLMGLFEPGDMKYEIHRDSTLDPSLMEMTEAALLLLSRNPRGFFLFVEGGRIDHGHHESRAYRALTETIMFDDAIERAGQLTSEEDTLSLVTADHSHVFSFGGYPLRGSSIFGLAPGKARDRKAYTVLLYGNGPGYVLKDGARPDVTESESGSPEYRQQSAVPLDGETHAGEDVAVFARGPQAHLVHGVQEQTFIAHVMAFAACLEPYTACDLAPRAGTTDAAHPGPSVVPALLPLLAGTLLLLGTATAP”, the “percentage of EdU-negative” value in the data set on hTERT-HMEC (setting [2]) was 4.62 ± 0.18%; in the data set on hTERT-HMEC (protein concentration 0.225 µM), 5.34 ± 0.29%; in the data set with MCF7 (setting [2]) it was 23.9 ± 3.7%; in the data set on MCF7 (protein concentration 0.225 µM) it was 27.2 ± 0.72%.
Regarding “MQGPWVLLLLGLRLQLSLGVIPAEEENPAFWNRQAAEALDAAKKLQPIQKVAKNLILFLGDGLGVPTVTATRILKGQKNGKLGPETPLAMDRFPYLALSKTYNVDRQVPDSAATATAYLCGVKANFQTIGLSAAARFNQCNTTRGNEVISVMNRAKQAGKSVGVVTTTRVQHASPAGTYAHTVNRNWYSDADMPASARQEGCQDIATQLISNMDIDVILGGGRKYMFPMGTPDPEYPADASQNGIRLDGKNLVQEWLAKHQGAWYVWNRTELMQASLDQSVTHLMGLFEPGDTKYEIHRDPTLDPSLMEMTEAALRLLSRNPRGFYLFVEGGRIDHGHHEGVAYQALTEAVMFDDAIERAGQLTSEEDTLTLVTADHSHVFSFGGYTLRGSSIFGLAPSKAQDSKAYTSILYGNGPGYVFNSGVRPDVNESESGSPDYQQQAAVPLSSETHGGEDVAVFARGPQAHLVHGVQEQSFVAHVMAFAACLEPYTACDLAPPACTTDAAHPVAASLPLLAGTLLLLGASAAP”, the “percentage of EdU-negative” value with hTERT-HMEC (setting [2]) was determined as 5.37 ± 0.33%; in the data set with hTERT-HMEC (protein concentration 0.225 µM), 6.16 ± 1.5%; in the data set with MCF7 (setting [2]), 24.8 ± 1.8%; in the data set on MCF7 (protein concentration 0.225 µM) it was 24.4 ± 0.42%.
Turning to “MQIITTALVCLLLAGMWPEDVDSKSMQVPFSRCCFSFAEQEIPLRAILCYRNTSSICSNEGLIFKLKRGKEACALDTVGWVQRHRKMLRHCPSKRK”, the “percentage of EdU-negative” value in the data set with hTERT-HMEC (setting [2]) was 4.79 ± 0.52%; with hTERT-HMEC (protein concentration 0.225 µM) it was 12 ± 1.1%; in the data set with MCF7 (setting [2]) it was 24.1 ± 3.4%; with MCF7 (protein concentration 0.225 µM), 25.4 ± 0.28%.
